# Measured values published in patent US20240287172A1 (SCIRHOM, published 2024).
# B1: antibody 16 (antibody, V domains shown)
# VH: QVTLKESGPGILQPSQTLSLTCSFSGFSLSTFALGVGWIRQPSGRGLEWLAHIWWDDDKYYNPALKSRLTISKDTSKNHVFLKIANVDTADTATYYCARITTYYYGMDYWGQGTSVTVSS
# VL: DIVLSQSPATLSVTPGDSVSLFCRASQSIGNHLHWYQQESHASPRLLIKYASQSISGIPSRFSGSGSGTDFTLSINSVETEDFGMYFCQQSYNWPLTFGAGTKLELK
# notes: mouse IgG, kappa light chain; also called clone #16; purified antibody 16
# B2: antibody 3 (antibody, V domains shown)
# VH: QVTLKESGPGILQPSQTLSLTCSFSGFSLTTFAMGIGWVRQPSGKGLEWLAHIWWDGEKYNNPVLKSRLTISKDTSKNQVFLRIANVDTPDTATYYCARISSIYYIIDNWGQGTSVTVSS
# VL: DIVLTQSPATLSVTPGHSVSLSCRASQSISNNLHWYQKKSHESPRLLIKYVSQSISGIPSRFSGSGSGTDFTLSINSVETEDFGMYFCQQSYNWPLTFGAGTKLELK
# notes: mouse IgG, kappa light chain; also called clone #3; purified antibody 3
# B3: antibody 34 (antibody, V domains shown)
# VH: QVTLKESGPGILQPSQTLSLTCSFSGFSLSTFSLGVGWIRQSSGKGLEWLAHIWWDDEKYYNPALKSRLTISKDTSKNQVFLKIANVDAADTATYYCARAYYSKSYYALDYWGQGTSVTVSS
# VL: DIQMTQSPSSLSASLGERVSLTCRASQEISGYLSWLQQKPDGTIKRLIYAASTLDSGVPKRFSGSRSGSDYSLAISSLESEDFADYYCLQYANFPFTFGSGTKLEIK
# notes: mouse IgG, kappa light chain; also called clone #34; purified antibody 34
# B4: antibody 5 (antibody, V domains shown)
# VH: QVTLKESGPGILQPSQTLSLTCSFSGFSLSTFGMGVGWIRQPSGKGLEWLAHIWWDDEKYYNSALKSRLTISKATSKNQAFLKIANVDTADTATYYCARISNYGSNYWYFNVWGTGTTVTVSS
# VL: QVVLTQSPALMSASPGEKVTMTCSAGSSVSCMYWYQQKPGSSPRVLIYDTSNLASGVPARFTGSGSGTSYSLTISRMEAEDAASYYCQQWNSYPLTFGAGTKLELK
# notes: mouse IgG, kappa light chain; also called clone #5; purified antibody 5
# B5: antibody 42 (antibody, V domains shown)
# VH: QVTLKESGPGILQPSQTLSLTCSLSGFSLSTFGRGVGWIRQPSGKGLEWLAHIWWDDEKYYNPALKSRLTISKDTSKNQVFLRIANVDTADTATYYCARIQNYGSNYWYFDVWGTGTTVTVSS
# VL: LIVLTQSPAIMSASPGEKVTMTCGATSRISYMFWYQQKPGSSPRVLIYDTSNLASGVPVRFSGSGSGTSYSLTISRVEAEDVATYYCQQWNSYPLTFGAGTKLELK
# notes: mouse IgG, kappa light chain; also called clone #42; purified antibody 42
# B6: antibody 43 (antibody, V domains shown)
# VH: QVALKESGPGILQPSQTLSLTCSFSGFSLSTFGMGVGWIRQSSGKGLEWLANIWWDDDKYYNPALKSRLTISKDASKNQAFLKIANVDTADTATYYCARIGNYGSNYWYFDVWGTGTTVTVSS
# VL: QIVLTQSPAIMSASPGERVTMTCSANSRISYMYWYQQKPGSSPRLLIYDTSNLASGVPVRFSGSGSGTSYSLTISRMEAEDAATYNCQQWSSYPLTFGAGTKLELK
# notes: mouse IgG, kappa light chain; also called clone #43; purified antibody 43
# B7: antibody 44 (antibody, V domains shown)
# VH: QVTLKESGPGILQPSQTLSLTCSFSGFSLSTFGMGVGWIRQPSEKGLEWLAHIWWDDDKYYNPALKSRLTISKDTSKNQIFLKITNVDTAETATYYCSRIGNYGSNYWYFDVWGTGTTVTVSS
# VL: QIVLTQSPAVMSASPGEKVTMTCTASSSVYYMYWYQQTPGSSPRLLIYDTSNLASGVPVRFSGSGSGTSYSLTISRMEAEDAATYYCQQWNTYPLTFGAGTKLELK
# notes: mouse IgG, kappa light chain; also called clone #44; purified antibody 44
# B8: antibody 22 (antibody, V domains shown)
# VH: QVTLKESGPGILQPSQTLSLTCSFSGFSLSTFGMGVGWIRQPSGKGLEWLAHIWWDDEKYYNSALKSRLTISKATSKNQVFLKIANVDTADTATYYCARISNYGSNYWYFNVWGTGTTVTVSS
# VL: QVVLTQSPALMSASPGEKVTMTCSAGSSVSYMYWYQQKPGSSPRVLIYDTSNLASGVPARFTGSGSGTSYSLTISRMEAEDAATYYCQQWNSYPLTFGAGTKLELK
# notes: mouse IgG, kappa light chain; also called clone #22; purified antibody 22
# Target: T1, hiR2-FL-M534-T7 (deletion of M534) (human, UniProt Q6PJF5 1-856)
# T1 construct: single amino acid deletion
# T1 sequence: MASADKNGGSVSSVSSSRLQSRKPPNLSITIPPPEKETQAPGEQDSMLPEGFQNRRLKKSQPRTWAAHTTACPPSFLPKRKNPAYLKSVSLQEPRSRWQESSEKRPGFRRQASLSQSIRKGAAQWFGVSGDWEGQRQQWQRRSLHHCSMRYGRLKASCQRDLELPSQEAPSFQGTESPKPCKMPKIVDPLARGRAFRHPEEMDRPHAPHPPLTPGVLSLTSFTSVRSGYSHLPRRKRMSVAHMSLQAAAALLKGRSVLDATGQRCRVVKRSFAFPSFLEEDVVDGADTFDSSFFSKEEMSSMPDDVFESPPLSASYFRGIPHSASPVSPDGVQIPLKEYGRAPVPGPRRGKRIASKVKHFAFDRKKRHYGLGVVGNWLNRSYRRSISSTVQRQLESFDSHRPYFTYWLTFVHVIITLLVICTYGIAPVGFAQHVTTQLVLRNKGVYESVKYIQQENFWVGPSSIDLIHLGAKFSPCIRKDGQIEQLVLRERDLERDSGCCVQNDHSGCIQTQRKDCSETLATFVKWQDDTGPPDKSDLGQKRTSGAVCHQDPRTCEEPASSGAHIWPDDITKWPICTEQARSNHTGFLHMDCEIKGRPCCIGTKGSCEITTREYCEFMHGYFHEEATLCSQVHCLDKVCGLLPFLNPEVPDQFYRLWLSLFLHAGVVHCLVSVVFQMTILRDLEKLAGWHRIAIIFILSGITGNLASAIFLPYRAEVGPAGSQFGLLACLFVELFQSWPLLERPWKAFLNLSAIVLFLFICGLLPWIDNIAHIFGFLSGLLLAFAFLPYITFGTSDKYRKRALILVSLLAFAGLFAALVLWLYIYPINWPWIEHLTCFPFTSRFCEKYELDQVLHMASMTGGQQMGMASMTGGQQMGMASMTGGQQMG
# Test: FACS, MEF-DKO cells, 3 µg/ml
# Text: In brief, immortalized MEF-DKO-hiR2-FL-G498A-T7, MEF-DKO-hiR2-FL-Q502R-T7, MEF-DKO-hiR2-FL-I509V-T7, MEF-DKO-hiR2-FL-Q512S-T7, MEF-DKO-hiR2-FL-R513E-T7, MEF-DKO-hiR2-FL-K514E-T7, MEF-DKO-hiR2-FL-D515E-T7, MEF-DKO-hiR2-FL-E518S-T7, MEF-DKO-hiR2-FL-T522V-T7, MEF-DKO-hiR2-FL-F523W-T7, MEF-DKO-hiR2-FL-Q527P-T7, MEF-DKO-hiR2-FL-D528I-T7, MEF-DKO-hiR2-FL-D529H-T7, MEF-DKO-hiR2-FL-T530P-T7, MEF-DKO-hiR2-FL-G531S-T7, MEF-DKO-hiR2-FL-P532A-T7, MEF-DKO-hiR2-FL-M534-T7, MEF-DKO-hiR2-FL-D535-T7, MEF-DKO-hiR2-FL-K536-T7, MEF-DKO-hiR2-FL-S537E-T7, MEF-DKO-hiR2-FL-D538L-T7, MEF-DKO-hiR2-FL-L539A-T7, MEF-DKO-hiR2-FL-Q541H-T7, MEF-DKO-hiR2-FL-T544Q-T7, MEF-DKO-hiR2-FL-S545F-T7, MEF-DKO-hiR2-FL-A547S-T7, MEF-DKO-hiR2-FL-T555V-T7, MEF-DKO-hiR2-FL-E557D-T7, MEF-DKO-hiR2-FL-A560S-T7 and MEF-DKO-hiR2-FL-S562E-T7 cells were harvested with 10 mM EDTA in PBS, washed and resuspended in FACS buffer (PBS, 3% FBS, 0.05% sodium azide), and seeded in Nunc U-bottom 96-well plates (Thermo Fisher Scientific, USA) at approximately 3×10⁵ cells per well. To pellet cells and remove supernatants, the plates were centrifuged at 1,500 rpm and 4° C. for 3 minutes. For primary staining, cells were resuspended in 100 μl per well of either FACS buffer alone (controls) or the purified antibodies 3, 5, 16, 22, 34, 42, 43, 44, 48, and 50 of the invention at 3 μg/ml in FACS buffer and incubated on ice for 1 hour. Afterwards, plates were centrifuged at 1,500 rpm and 4° C. for 3 minutes and washed twice with 200 μl per well of FACS buffer. For secondary staining, cells were spun down and resuspended in 100 μl per well of PE-conjugated goat anti-mouse IgG F(ab′)2 detection fragment (Dianova, Germany) diluted 1:100 in FACS buffer. Protected from light, the cell suspensions were incubated on ice for 1 hour. Plates were then centrifuged at 1,500 rpm and 4° C. for 3 minutes and washed three times with 200 μl per well of FACS buffer. Finally, cells were resuspended in 150 μl per well of FACS buffer and analyzed using a BD Accuri™ C6 Plus flow cytometer (Becton Dickinson, Germany).
row,Binder,loss of binding vs wild type [%]
1,B1,≥ 95
2,B2,≥ 95
3,B3,≥ 95
4,B4,≥ 95
5,B5,≥ 95
6,B6,≥ 95
7,B7,≥ 95
8,B8,≥ 95
